Test results from US7799901B2, “Modulators of the function of FAS receptors and other proteins” (Yeda Research and Development Co. Ltd., priority 1995, dated 2010).

Experiments:
Lamin = assay: Two-hybrid β-galactosidase expression filter assay in SFY526 yeast, DNA-binding domain hybrid Lamin; settings: specificity test
Source text: (§1) To isolate proteins interacting with the intracellular domain of the FAS-R, the yeast two-hybrid system was used (Fields and Song, 1989). […] In this system, the genes for the candidate interacting proteins are cloned into separate expression vectors. In one expression vector, the sequence of the one candidate protein is cloned in phase with the sequence of the GAL4 DNA-binding domain to generate a hybrid protein with the GAL4 DNA-binding-domain, and in the other vector, the sequence of the second candidate protein is cloned in phase with the sequence of the GAL4 activation domain to generate a hybrid protein with the GAL4-activation domain. The two hybrid vectors are then co-transformed into a yeast host strain having a lacZ or HIS3 reporter gene under the control of upstream GAL4 binding sites. […]
(§2) The yeast two-hybrid test was further applied to evaluate the specificity of binding of MACH to MORT-1, in particular, to define the region in MORT-1 to which MACH binds, as well as to determine which of the MACH ORFs interacts with MORT-1, the procedures being as set forth herein above in Examples 1 and 2. Briefly, various MORT-1 and MACH constructs were prepared for testing the interaction of the proteins encoded by the Gal4 DNA-binding domain and activation domain constructs within transfected SFY526 yeast cells as assessed by the β-galactosidase expression filter assay. […]

human p75 IC = molecular target: T1, human p75 IC (Homo sapiens, UniProt P20333); assay: Two-hybrid β-galactosidase expression filter assay in SFY526 yeast, DNA-binding domain hybrid human p75 IC; settings: specificity test
T1 construct: residues 287-461 of the intracellular domain of the human p75 TNF-R; expressed in transfected cells; host or cells: SFY526 yeast
T1 sequence (P20333 287-461): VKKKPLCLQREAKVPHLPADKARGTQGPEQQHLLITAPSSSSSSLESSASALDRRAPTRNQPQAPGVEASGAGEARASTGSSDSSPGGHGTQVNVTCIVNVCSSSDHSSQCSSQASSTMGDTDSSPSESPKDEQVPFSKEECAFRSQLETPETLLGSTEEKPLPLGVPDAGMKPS
Source text: as §1, §2

[1] = Two-hybrid β-galactosidase expression filter assay in SFY526 yeast, empty pGBT9 vector; type: binding; settings: negative control bait
Source text: as §1, §2

human FAS DD = molecular target: T2, human FAS DD (Homo sapiens, UniProt P25445); assay: Two-hybrid β-galactosidase expression filter assay in SFY526 yeast, DNA-binding domain hybrid human FAS DD; settings: specificity test
T2 construct: the ‘death domain’ region of the intracellular domain of the human Fas-R (human Fas DD); expressed in transfected cells; host or cells: SFY526 yeast
T2 sequence (P25445 230-314 limits assumed): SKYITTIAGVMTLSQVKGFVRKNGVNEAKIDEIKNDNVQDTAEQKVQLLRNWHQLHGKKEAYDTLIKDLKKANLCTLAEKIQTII
Source text: as §1, §2

human CD40 IC = molecular target: T3, human CD40 IC (Homo sapiens, UniProt P25942); assay: Two-hybrid β-galactosidase expression filter assay in SFY526 yeast, DNA-binding domain hybrid human CD40 IC; settings: specificity test
T3 construct: residues 216-277 of the intracellular domain of the human CD40; expressed in transfected cells; host or cells: SFY526 yeast
T3 sequence (P25942 216-277): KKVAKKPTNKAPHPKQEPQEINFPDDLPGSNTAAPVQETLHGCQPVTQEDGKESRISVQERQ
Source text: as §1, §2

MORT1DD (130-245) = molecular target: T4, MORT1DD (130-245) (Homo sapiens, UniProt Q13158); assay: Two-hybrid β-galactosidase expression filter assay in SFY526 yeast, DNA-binding domain hybrid MORT1DD (130-245)
T4 construct: 130-245 MORT-1; expressed in transfected cells
T4 sequence (Q13158 82-197): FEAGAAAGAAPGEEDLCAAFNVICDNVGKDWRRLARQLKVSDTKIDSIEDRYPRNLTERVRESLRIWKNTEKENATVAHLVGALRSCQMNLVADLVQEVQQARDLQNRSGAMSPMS
Source text: as §1, §2

HeLa cells = assay: Ligand-independent cytocidal effect of MACH expression in HeLa cells, neutral red uptake; type: cell-based, human; settings: 48 hrs. after transfection, FIG. 6
Procedure: In order to test this possibility, constructs encoding MACH were prepared with a tetracycline-controlled expression vector (for details see Example 1). These constructs were used to transfect HeLa cells in which the vectors were transiently expressed. Besides the MACH constructs, other control constructs were used to evaluate the effect of transient expression on the viability of the HeLa cells to which the effect of the MACH constructs could be compared. These other constructs included MORT-1, human FAS-IC and luciferase (Luc). In addition, co-transfection of the HeLa cells was also tested by using MORT-1 and MACH constructs to determine what effects the interaction between these proteins would cause. After transfection the HeLa cells were incubated and cell viability was evaluated 48 hrs. after transfection either in the presence or the absence of tetracycline (1 μg/ml) to block expression. Cell viability was determined by the neutral red uptake assay.
The results are shown in FIG. 6, which depicts graphically the ligand-independent triggering of cytocidal effects in cells transfected with MACH in comparison to cells transfected with constructs encoding the other proteins as well as cotransfected cells (MORT1+MACH). […]

MORT-1 = molecular target: T5, MORT-1 (Homo sapiens, UniProt Q13158, G32V); assay: Two-hybrid β-galactosidase expression filter assay in SFY526 yeast, DNA-binding domain hybrid MORT-1; design: the full-length MORT-1 cDNA was used (MORT 1); expressed in transfected cells; host or cells: SFY526 yeast; settings: substance as activation domain hybrid
T5 sequence (Q13158 with tags, fused parts or gaps G32V): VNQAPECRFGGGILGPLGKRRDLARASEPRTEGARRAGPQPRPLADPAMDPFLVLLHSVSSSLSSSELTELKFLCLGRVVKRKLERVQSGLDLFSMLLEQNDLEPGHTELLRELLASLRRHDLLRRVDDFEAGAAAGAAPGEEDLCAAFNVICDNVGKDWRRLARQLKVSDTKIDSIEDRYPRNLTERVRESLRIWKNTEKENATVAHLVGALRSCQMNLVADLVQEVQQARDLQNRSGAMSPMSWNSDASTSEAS
Source text: as §1, with “sites. Only those transformed host cells (cotransformants) in which the two hybrid proteins are expressed and are capable of interacting with each other, will be capable of expressing the reporter gene.” for “sites.”
The yeast two-hybrid test was further applied to evaluate the specificity of binding of MACH to MORT-1, in particular, to define the region in MORT-1 to which MACH binds, as well as to determine which of the MACH ORFs interacts with MORT-1, the procedures being as set forth herein above in Examples 1 and 2. Briefly, various MORT-1 and MACH constructs were prepared for testing the interaction of the proteins encoded by the Gal4 DNA-binding domain and activation domain constructs within transfected SFY526 yeast cells as assessed by the β-galactosidase expression filter assay. […] In the assay, the development of color was determined, where the greater the color development, the greater the interaction between the constructs encoded by the DNA-binding domain and activation domain; Color development was depicted by symbols, where “+++” and “+” indicate the development of a strong color within 30 and 90 min. of the assay, respectively, and “−−−” indicates the lack of development of color within 24 hrs. of the assay. […]

B1: MACH: MORT-1 associated CED3 homolog; full-length MACH cDNA construct; protein later renamed MACHβ1 (protein)
chain: MDFSRNLYDIGEQLDSEDLASLKFLSLDYIPQRKQEPIKDALMLFQRLQEKRMLEESNLSFLKELLFRINRLDLLITYLNTRKEEMERELQTPGRAQISAYRVMLYQISEEVSRSELRSFKFLLQEEISKCKLDDDMNLLDIFIEMEKRVILGEGKLDILKRVCAQINKSLLKIINDYEEFSKERSSSLEGSPDEFSNDFGQSLPNEKQTSGILSDHQQSQFCKSTGESAQTSQH
- development of color (interaction with DNA-binding domain hybrid) (Lamin): −−− (“−−−” indicates the lack of development of color within 24 hrs. of the assay)
- development of color (interaction with DNA-binding domain hybrid) (human p75 IC): −−− (“−−−” indicates the lack of development of color within 24 hrs. of the assay)
- development of color (interaction with DNA-binding domain hybrid) [1]: −−− (“−−−” indicates the lack of development of color within 24 hrs. of the assay)
- development of color (interaction with DNA-binding domain hybrid) (human FAS DD): −−− (“−−−” indicates the lack of development of color within 24 hrs. of the assay)
- development of color (interaction with DNA-binding domain hybrid) (human CD40 IC): −−− (“−−−” indicates the lack of development of color within 24 hrs. of the assay)
- development of color (interaction with DNA-binding domain hybrid) (MORT1DD (130-245)): −−− (“−−−” indicates the lack of development of color within 24 hrs. of the assay)
- cytotoxic effect of induced overexpression in HeLa cells (HeLa cells): dramatic cytotoxic effect
- development of color (interaction with DNA-binding domain hybrid) (MORT-1): +++ (“+++” and “+” indicate the development of a strong color within 30 and 90 min. of the assay, respectively)
